For the test, the system named is target antigen-expressing cell line. Nature of the test: Jurkat NFAT-GFP assay, coculture with target cell lines expressing the respective target antigen (summary Table 10A). Format: cell-based, human. The arrangement: key: The signs +/−, +, 2+ etc. after the name of the cell lines indicate the relative degree of positivity on the Jurkat-NFAT-GFP assay as measured by the % GFP positive cells; +: relative degree of positivity on the Jurkat-NFAT-GFP assay as measured by the % GFP positive cells; 2+: relative degree of positivity on the Jurkat-NFAT-GFP assay as measured by the % GFP positive cells. The conditions noted are these: relative % GFP positive cells; for NFAT-GFP ASSAY Positive Cell lines: RAJI: SIR-expressing Jurkat-NFAT-GFP cells cocultured with RAJI; for NFAT-GFP ASSAY Positive Cell lines: NALM6: SIR-expressing Jurkat-NFAT-GFP cells cocultured with NALM6. A digest of the protocol: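 Jurkat cells carrying an NFAT-site IL-2 promoter driving GFP were lentivirally transduced with SIRs, puromycin-selected, then cocultured with antigen-expressing target cells at E:T about 1:2 for about 4–18 hours. GFP induction was read by flow cytometry as % GFP-positive cells versus parental Jurkat-NFAT-GFP.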

B1: 040716-F05 (protein)
chain: MALPVTALLLPLALLLHAARPDEIVLTQSPATLSLSPGERATLSCSASSSVSYMHWYQQKPGQAPRLLIYDTSKLASGIPARFSGSGSGTDFTLTISSLEPEDVAVYYCFQGSVYPFTFGQGTKLEIKRGGGGSGGGGSGGGGSQVQLQESGPGLVKPSQTLSLTCTVSGGSISTSGMGVGWIRQHPGKGLEWIGHIWWDDDKRYNPALKSRVTISVDTSKNQFSLKLSSVTAADTAVYYCARMELWSYYFDYWGQGTLVTVSSLEGKPIPNPLLGLDSTGSGEDLKNVFPPEVAVFEPSKAEIAHTQKATLVCLATGFYPDHVELSWWVNGKEVHSGVCTDPQPLKEQPALNDSRYCLSSRLRVSATFWQNPRNHFRCQVQFYGLSENDEWTQDRAKPVTQIVSAEAWGRADCGITSASYHQGVLSATILYEILLGKATLYAVLVSALVLMAMVKRKDSRGRAKRSGSGATNFSLLKQAGDVEENPGPTSTMALPVTALLLPLALLLHAARPDIQMTQSPSSLSASLGERVSLTCRATQELSGYLSWLQQKPDGTIKRLIYAASTLDSGVPKRFSGNRSGSDYSLTISSLESEDFADYYCLQYAIYPYTFGGGTKLEIKGGGGSGGGGSGGGGSEVQLQQSGPELVKPGASVKMSCKASGYTFTSYFIHWVKQKPGQGLEWIGFINPYNDGSKYNEKFKGKATLTSDKSSSTAYMELSSLTSEDSAVYYCTRDDGYYGYAMDYWGQGTSVTVSSTREQKLISEEDGSGIQNPDPAVYQLRDSKSSDKSVCLFTDFDSQTNVSQSKDSDVYITDKCVLDMRSMDFKSNSAVAWSNKSDFACANAFNNSIIPEDTFFPSSDVPCDVKLVEKSFETDTNLNFQNLSVIGFRILLLKVAGFNLLMTLRLWSSRAKRSGSGVKQTLNFDLLKLAGDVESNPGPSRGHMTEYKPTVRLATRDDVPRAVRTLAAAFADYPATRHTVDPDRHIERVTELQELFLTRVGLDIGKVWVADDGAAVAVWTTPESVEAGAVFAEIGPRMAELSGSRLAAQQQMEGLLAPHRPKEPAWFLATVGVSPDHQGKGLGSAVVLPGVEAAERAGVPAFLETSAPRNLPFYERLGFTVTADVEVPEGPRTWCMTRKPGA
modifications: Synthetic polynucleotide encoding a SIR
As for B1, the “NFAT-GFP ASSAY Positive Cell lines: RAJI” value is reported as “RAJI (+/−)”.

B2: 030217-J05 (protein)
chain: MALPVTALLLPLALLLHAARPDEIVLTQSPATLSLSPGERATLSCSASSSVSYMHWYQQKPGQAPRLLIYDTSKLASGIPARFSGSGSGTDFTLTISSLEPEDVAVYYCFQGSVYPFTFGQGTKLEIKRGGGGSGGGGSGGGGSQVQLQESGPGLVKPSQTLSLTCTVSGGSISTSGMGVGWIRQHPGKGLEWIGHIWWDDDKRYNPALKSRVTISVDTSKNQFSLKLSSVTAADTAVYYCARMELWSYYFDYWGQGTLVTVSSLEGKPIPNPLLGLDSTGSGEDLKNVFPPEVAVFEPSKAEIAHTQKATLVCLATGFYPDHVELSWWVNGKEVHSGVCTDPQPLKEQPALNDSRYCLSSRLRVSATFWQNPRNHFRCQVQFYGLSENDEWTQDRAKPVTQIVSAEAWGRADCGITSASYHQGVLSATILYEILLGKATLYAVLVSALVLMAMVKRKDSRGRAKRSGSGATNFSLLKQAGDVEENPGPTSMALPVTALLLPLALLLHAARPDIQMTQSPASLSASVGETVTIICRASVNIYSYLAWYQQKQGKSPQLLVYNAKILAEGVPSRFSGSGSGTQFSLKINSLQPEDFGSYYCQHHYGTFTFGSGTKLEIKRGGGGSGGGGSGGGGSQVQLKESGPGLVAPSQSLSITCTISGFSLTSYGVHWVRQPPGKGLEWLVVIWSDGSTTYNSALKSRLSISKDNSKSQVFLKMNSLQTDDTAIYYCASHYGSTLAFASWGHGTLVTVSAATREQKLISEEDGSGIQNPDPAVYQLRDSKSSDKSVCLFTDFDSQTNVSQSKDSDVYITDKCVLDMRSMDFKSNSAVAWSNKSDFACANAFNNSIIPEDTFFPSSDVPCDVKLVEKSFETDTNLNFQNLSVIGFRILLLKVAGFNLLMTLRLWSSRAKRSGSGVKQTLNFDLLKLAGDVESNPGPSRGHMTEYKPTVRLATRDDVPRAVRTLAAAFADYPATRHTVDPDRHIERVTELQELFLTRVGLDIGKVWVADDGAAVAVWTTPESVEAGAVFAEIGPRMAELSGSRLAAQQQMEGLLAPHRPKEPAWFLATVGVSPDHQGKGLGSAVVLPGVEAAERAGVPAFLETSAPRNLPFYERLGFTVTADVEVPEGPRTWCMTRKPGA
With B2, the “NFAT-GFP ASSAY Positive Cell lines: NALM6” value is on record as “(+/−)” and the “NFAT-GFP ASSAY Positive Cell lines: RAJI” value is on record as “RAJI (2+), NALM6”.

B3: 041216 G04 (protein)
chain: MALPVTALLLPLALLLHAARPDEIVLTQSPATLSLSPGERATLSCSASSSVSYMHWYQQKPGQAPRLLIYDTSKLASGIPARFSGSGSGTDFTLTISSLEPEDVAVYYCFQGSVYPFTFGQGTKLEIKRGGGGSGGGGSGGGGSQVQLQESGPGLVKPSQTLSLTCTVSGGSISTSGMGVGWIRQHPGKGLEWIGHIWWDDDKRYNPALKSRVTISVDTSKNQFSLKLSSVTAADTAVYYCARMELWSYYFDYWGQGTLVTVSSLEGKPIPNPLLGLDSTGSGEDLKNVFPPEVAVFEPSKAEIAHTQKATLVCLATGFYPDHVELSWWVNGKEVHSGVCTDPQPLKEQPALNDSRYCLSSRLRVSATFWQNPRNHFRCQVQFYGLSENDEWTQDRAKPVTQIVSAEAWGRADCGITSASYHQGVLSATILYEILLGKATLYAVLVSALVLMAMVKRKDSRGRAKRSGSGATNFSLLKQAGDVEENPGPTSMDWIWRILFLVGAATGAHSFEVQLVESGGGLVQAGGSLRLSCAASGSIFSGNVMGWYRRQAPGKEREWVAAIASGGSIYYRDSVKGRFTISRDNAKNTVYLQMNSLKPEDTAVYYCNSHPPTLPYWGLGTQVTVSSTREQKLISEEDGSGIQNPDPAVYQLRDSKSSDKSVCLFTDFDSQTNVSQSKDSDVYITDKCVLDMRSMDFKSNSAVAWSNKSDFACANAFNNSIIPEDTFFPSSDVPCDVKLVEKSFETDTNLNFQNLSVIGFRILLLKVAGFNLLMTLRLWSSRAKRSGSGVKQTLNFDLLKLAGDVESNPGPSRGHMTEYKPTVRLATRDDVPRAVRTLAAAFADYPATRHTVDPDRHIERVTELQELFLTRVGLDIGKVWVADDGAAVAVWTTPESVEAGAVFAEIGPRMAELSGSRLAAQQQMEGLLAPHRPKEPAWFLATVGVSPDHQGKGLGSAVVLPGVEAAERAGVPAFLETSAPRNLPFYERLGFTVTADVEVPEGPRTWCMTRKPGA
modifications: Synthetic polynucleotide encoding a SIR
For B3, the “NFAT-GFP ASSAY Positive Cell lines: RAJI” value is listed as “RAJI (+/−)”.

B4: 030217-K05 (protein)
chain: MALPVTALLLPLALLLHAARPDEIVLTQSPATLSLSPGERATLSCSASSSVSYMHWYQQKPGQAPRLLIYDTSKLASGIPARFSGSGSGTDFTLTISSLEPEDVAVYYCFQGSVYPFTFGQGTKLEIKRGGGGSGGGGSGGGGSQVQLQESGPGLVKPSQTLSLTCTVSGGSISTSGMGVGWIRQHPGKGLEWIGHIWWDDDKRYNPALKSRVTISVDTSKNQFSLKLSSVTAADTAVYYCARMELWSYYFDYWGQGTLVTVSSLEGKPIPNPLLGLDSTGSGEDLKNVFPPEVAVFEPSKAEIAHTQKATLVCLATGFYPDHVELSWWVNGKEVHSGVCTDPQPLKEQPALNDSRYCLSSRLRVSATFWQNPRNHFRCQVQFYGLSENDEWTQDRAKPVTQIVSAEAWGRADCGITSASYHQGVLSATILYEILLGKATLYAVLVSALVLMAMVKRKDSRGRAKRSGSGATNFSLLKQAGDVEENPGPTSMALPVTALLLPLALLLHAARPDIVMTQSHKFMSTSVGDRVSVTCKASQNVGNNVAWYQQKPGQSPKVLIYSASYRYSGVPDRFTGSGSGTDFTLTISNVQSEDLAEYFCQQYNTYPFTFGSGTKLEIKGGGGSGGGGSGGGGSEVQLEESGGGLVQPGGSMKLSCVASGFTFSNYWMNWVRQSPEKGLEWVAEIRFKSHNYATHFAESVKGRFTISRDDSKSSVYLQMNNLRAEDTGIYYCTRRIGNSDYDWWYFDVWGAGTSVTVSSASTREQKLISEEDGSGIQNPDPAVYQLRDSKSSDKSVCLFTDFDSQTNVSQSKDSDVYITDKCVLDMRSMDFKSNSAVAWSNKSDFACANAFNNSIIPEDTFFPSSDVPCDVKLVEKSFETDTNLNFQNLSVIGFRILLLKVAGFNLLMTLRLWSSRAKRSGSGVKQTLNFDLLKLAGDVESNPGPSRGHMTEYKPTVRLATRDDVPRAVRTLAAAFADYPATRHTVDPDRHIERVTELQELFLTRVGLDIGKVWVADDGAAVAVWTTPESVEAGAVFAEIGPRMAELSGSRLAAQQQMEGLLAPHRPKEPAWFLATVGVSPDHQGKGLGSAVVLPGVEAAERAGVPAFLETSAPRNLPFYERLGFTVTADVEVPEGPRTWCMTRKPGA
As to B4, the “NFAT-GFP ASSAY Positive Cell lines: NALM6” value is recorded as “(+)”.

B5: 040716-I04 (protein)
chain: MALPVTALLLPLALLLHAARPDEIVLTQSPATLSLSPGERATLSCSASSSVSYMHWYQQKPGQAPRLLIYDTSKLASGIPARFSGSGSGTDFTLTISSLEPEDVAVYYCFQGSVYPFTFGQGTKLEIKRGGGGSGGGGSGGGGSQVQLQESGPGLVKPSQTLSLTCTVSGGSISTSGMGVGWIRQHPGKGLEWIGHIWWDDDKRYNPALKSRVTISVDTSKNQFSLKLSSVTAADTAVYYCARMELWSYYFDYWGQGTLVTVSSLEGKPIPNPLLGLDSTGSGEDLKNVFPPEVAVFEPSKAEIAHTQKATLVCLATGFYPDHVELSWWVNGKEVHSGVCTDPQPLKEQPALNDSRYCLSSRLRVSATFWQNPRNHFRCQVQFYGLSENDEWTQDRAKPVTQIVSAEAWGRADCGITSASYHQGVLSATILYEILLGKATLYAVLVSALVLMAMVKRKDSRGRAKRSGSGATNFSLLKQAGDVEENPGPTSTMALPVTALLLPLALLLHAARPDIVMTQTPLTLSVTIGQPASISCKSSQSLLDSDGKTYLNWLLQRPGQSPERLIYLVSKLDSGVPDRFTGSGSGTDFTLKISRVEAEDLGVYCCWQGTHFPYTFGGGTKVEIKGGGGGSGGGGSGGGGSQVQLQQPGAELVRPGASVKLSCKASGYTFTSYWMNWVKQRPGQGLEWIGMIDPSDSETHYNHIFKDKATLTVDKSSSTAYLQLSSLTSEDSAVYYCARNLYLWGQGTSVTVSSTREQKLISEEDGSGIQNPDPAVYQLRDSKSSDKSVCLFTDFDSQTNVSQSKDSDVYITDKCVLDMRSMDFKSNSAVAWSNKSDFACANAFNNSIIPEDTFFPSSDVPCDVKLVEKSFETDTNLNFQNLSVIGFRILLLKVAGFNLLMTLRLWSSRAKRSGSGVKQTLNFDLLKLAGDVESNPGPSRGHMTEYKPTVRLATRDDVPRAVRTLAAAFADYPATRHTVDPDRHIERVTELQELFLTRVGLDIGKVWVADDGAAVAVWTTPESVEAGAVFAEIGPRMAELSGSRLAAQQQMEGLLAPHRPKEPAWFLATVGVSPDHQGKGLGSAVVLPGVEAAERAGVPAFLETSAPRNLPFYERLGFTVTADVEVPEGPRTWCMTRKPGA
modifications: Synthetic polynucleotide encoding a SIR
Take B5: the “NFAT-GFP ASSAY Positive Cell lines: RAJI” value was “RAJI (+/−), U266”. Besides, the “NFAT-GFP ASSAY Positive Cell lines: L363” value (SIR-expressing Jurkat-NFAT-GFP cells cocultured with L363) is listed as “(+/−), L363 (+/−)”. For the same molecule, the “NFAT-GFP ASSAY Positive Cell lines: U266” value (SIR-expressing Jurkat-NFAT-GFP cells cocultured with U266) is listed as “(+/−), L363 (+/−)”.
